Test results as given in IntAct's records for PubMed 24668264.
Each block holds one substance with its values, some of them ahead of it.

Key:
[1] = target: wdfy3_human WDFY3 (UniProt Q8IZQ1)
[2] = target: mlp3b_human MAP1LC3B (UniProt Q9GZQ8)
[3] = target: mlp3c_human MAP1LC3C (UniProt Q9BXW4)
[4] = target: mlp3c_human MAP1LC3C (UniProt Q9BXW4); remark: listed apart in the source

UniProt Q9BXW4, sequence (Q9BXW4 whole entry): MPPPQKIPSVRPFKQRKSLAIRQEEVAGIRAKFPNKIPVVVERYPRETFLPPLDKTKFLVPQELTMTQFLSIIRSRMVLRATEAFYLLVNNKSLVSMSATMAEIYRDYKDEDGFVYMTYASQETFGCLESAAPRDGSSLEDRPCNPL
UniProt Q8IZQ1, sequence (Q8IZQ1 whole entry): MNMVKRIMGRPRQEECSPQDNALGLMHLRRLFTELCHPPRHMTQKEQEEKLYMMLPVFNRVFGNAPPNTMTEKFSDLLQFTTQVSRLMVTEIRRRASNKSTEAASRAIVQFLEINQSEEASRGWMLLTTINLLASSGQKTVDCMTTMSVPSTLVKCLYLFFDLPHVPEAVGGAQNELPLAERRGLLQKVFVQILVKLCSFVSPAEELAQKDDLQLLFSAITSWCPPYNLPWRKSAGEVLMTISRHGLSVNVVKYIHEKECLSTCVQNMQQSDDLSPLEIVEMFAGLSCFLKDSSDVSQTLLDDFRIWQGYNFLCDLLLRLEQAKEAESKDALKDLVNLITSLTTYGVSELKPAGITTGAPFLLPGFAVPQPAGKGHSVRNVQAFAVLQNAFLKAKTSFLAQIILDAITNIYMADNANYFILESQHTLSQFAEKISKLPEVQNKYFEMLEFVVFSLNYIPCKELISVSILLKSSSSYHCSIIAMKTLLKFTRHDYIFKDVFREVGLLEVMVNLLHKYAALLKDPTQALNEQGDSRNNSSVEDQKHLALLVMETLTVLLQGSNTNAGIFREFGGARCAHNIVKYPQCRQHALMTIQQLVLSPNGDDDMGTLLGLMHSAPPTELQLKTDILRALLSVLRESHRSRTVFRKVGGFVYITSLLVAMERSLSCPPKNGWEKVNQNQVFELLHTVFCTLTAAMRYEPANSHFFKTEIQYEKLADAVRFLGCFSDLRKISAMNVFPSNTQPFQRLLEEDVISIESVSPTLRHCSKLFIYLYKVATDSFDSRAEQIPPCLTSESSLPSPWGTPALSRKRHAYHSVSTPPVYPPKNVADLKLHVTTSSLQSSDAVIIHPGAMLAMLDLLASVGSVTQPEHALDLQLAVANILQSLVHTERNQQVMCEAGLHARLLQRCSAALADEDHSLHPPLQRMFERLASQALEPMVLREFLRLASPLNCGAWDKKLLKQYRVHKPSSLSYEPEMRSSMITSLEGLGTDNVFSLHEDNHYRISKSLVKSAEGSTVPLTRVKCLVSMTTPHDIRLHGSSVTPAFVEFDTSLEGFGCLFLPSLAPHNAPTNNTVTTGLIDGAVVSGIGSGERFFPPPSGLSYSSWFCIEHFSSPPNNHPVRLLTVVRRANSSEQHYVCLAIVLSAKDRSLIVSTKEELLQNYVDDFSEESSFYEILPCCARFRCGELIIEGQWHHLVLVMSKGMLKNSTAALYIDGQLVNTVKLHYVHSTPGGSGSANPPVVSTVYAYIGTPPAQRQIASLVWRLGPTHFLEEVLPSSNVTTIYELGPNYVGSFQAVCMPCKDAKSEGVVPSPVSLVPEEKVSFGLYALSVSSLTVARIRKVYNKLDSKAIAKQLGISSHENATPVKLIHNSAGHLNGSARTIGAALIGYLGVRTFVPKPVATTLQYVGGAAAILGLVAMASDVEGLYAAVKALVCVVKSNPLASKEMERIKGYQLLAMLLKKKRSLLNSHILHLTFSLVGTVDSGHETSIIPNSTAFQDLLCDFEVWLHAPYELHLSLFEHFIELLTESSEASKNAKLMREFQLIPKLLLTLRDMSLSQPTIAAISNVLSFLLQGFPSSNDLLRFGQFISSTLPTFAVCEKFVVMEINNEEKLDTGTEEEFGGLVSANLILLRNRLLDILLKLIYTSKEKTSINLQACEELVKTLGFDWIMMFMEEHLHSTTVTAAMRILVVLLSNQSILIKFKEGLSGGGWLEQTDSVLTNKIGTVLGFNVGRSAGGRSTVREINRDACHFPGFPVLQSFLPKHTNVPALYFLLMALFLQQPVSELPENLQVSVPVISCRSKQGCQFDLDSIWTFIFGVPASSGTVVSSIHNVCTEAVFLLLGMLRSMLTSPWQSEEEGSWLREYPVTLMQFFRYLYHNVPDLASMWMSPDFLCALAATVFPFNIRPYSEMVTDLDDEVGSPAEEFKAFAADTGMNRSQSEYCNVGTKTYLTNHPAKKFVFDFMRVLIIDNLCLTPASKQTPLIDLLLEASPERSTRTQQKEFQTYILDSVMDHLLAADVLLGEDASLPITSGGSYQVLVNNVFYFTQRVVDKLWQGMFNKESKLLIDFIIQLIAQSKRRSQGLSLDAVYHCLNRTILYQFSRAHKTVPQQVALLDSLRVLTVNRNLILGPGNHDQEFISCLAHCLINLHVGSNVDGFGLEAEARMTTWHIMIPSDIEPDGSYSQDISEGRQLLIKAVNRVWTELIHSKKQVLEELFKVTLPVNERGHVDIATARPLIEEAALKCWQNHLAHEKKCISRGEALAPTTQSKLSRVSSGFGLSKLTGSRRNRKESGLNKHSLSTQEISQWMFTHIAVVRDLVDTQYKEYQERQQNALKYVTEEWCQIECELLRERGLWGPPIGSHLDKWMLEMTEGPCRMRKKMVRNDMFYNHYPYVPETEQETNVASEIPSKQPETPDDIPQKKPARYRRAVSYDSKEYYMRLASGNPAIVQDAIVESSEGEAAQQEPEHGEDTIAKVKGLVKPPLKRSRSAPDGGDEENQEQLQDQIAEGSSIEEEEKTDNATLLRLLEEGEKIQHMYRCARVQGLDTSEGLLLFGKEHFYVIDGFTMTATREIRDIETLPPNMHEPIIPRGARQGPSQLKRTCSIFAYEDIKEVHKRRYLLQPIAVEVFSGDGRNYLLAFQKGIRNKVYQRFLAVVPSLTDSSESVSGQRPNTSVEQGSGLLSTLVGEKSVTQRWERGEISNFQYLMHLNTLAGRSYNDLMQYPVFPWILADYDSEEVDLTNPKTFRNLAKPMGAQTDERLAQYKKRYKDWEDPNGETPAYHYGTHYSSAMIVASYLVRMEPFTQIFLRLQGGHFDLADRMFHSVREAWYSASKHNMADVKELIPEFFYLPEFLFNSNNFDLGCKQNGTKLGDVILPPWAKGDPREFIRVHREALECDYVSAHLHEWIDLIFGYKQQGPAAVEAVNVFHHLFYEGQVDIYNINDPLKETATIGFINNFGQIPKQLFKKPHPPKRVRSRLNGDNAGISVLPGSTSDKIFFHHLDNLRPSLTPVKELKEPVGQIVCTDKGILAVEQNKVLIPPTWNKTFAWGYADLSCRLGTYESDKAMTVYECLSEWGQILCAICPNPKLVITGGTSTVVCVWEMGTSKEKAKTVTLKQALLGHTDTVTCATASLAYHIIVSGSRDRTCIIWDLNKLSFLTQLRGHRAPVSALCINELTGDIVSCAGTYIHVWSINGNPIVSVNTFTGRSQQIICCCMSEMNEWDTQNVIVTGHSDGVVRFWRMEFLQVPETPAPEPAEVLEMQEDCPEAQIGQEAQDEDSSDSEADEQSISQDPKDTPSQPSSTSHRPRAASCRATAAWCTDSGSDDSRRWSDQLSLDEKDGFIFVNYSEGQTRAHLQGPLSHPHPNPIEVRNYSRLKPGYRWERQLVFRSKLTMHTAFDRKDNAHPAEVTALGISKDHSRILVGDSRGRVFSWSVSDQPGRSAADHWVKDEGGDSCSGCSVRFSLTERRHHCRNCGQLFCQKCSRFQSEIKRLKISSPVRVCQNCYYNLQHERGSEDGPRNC

- effect of a mutation on the interaction [1]: increasing interaction
Substance: Microtubule-associated protein 1 light chain 3 beta (Homo sapiens) (from UniProt Q9GZQ8) Q26K;H27Y;H57D

- effect of a mutation on the interaction [2]: disrupting interaction
Substance: WD repeat and FYVE domain-containing protein 3 (Homo sapiens), Q8IZQ1 F3346A

- effect of a mutation on the interaction [3]: decreasing interaction
Substance: WD repeat and FYVE domain-containing protein 3 (Homo sapiens), Q8IZQ1 I3347A

- effect of a mutation on the interaction [4]: decreasing interaction
Substance: WD repeat and FYVE domain-containing protein 3 (Homo sapiens), Q8IZQ1 V3349A
